Values belong to the binder of their own block, whether it stands above or below them.
Key:
[1] = target: T1, His6 tagged soluble monomeric extracellular domain (ECD) of hSIRPα v1 (human, UniProt P78324 31-373); assay: SPR (Biacore T200), antibody captured by anti-human Fc on CM5 chip, monomeric antigen as analyte, 1:1 model
T1 construct: extracellular domain; Made by transient transfection in Expi293 cells; used as monomeric analyte in Biacore; also called huSIRPαv1; huSIRPα-v1; not shown: His6 tag
Protocol: (§1) The experiment is described in Example 8. Antibodies were captured to the CM5 chip surface on which goat anti-human polyclonal antibody (Fc specific) was immobilized. Monomeric huSIRPα-v1 and huSIRPα-v2 were used as analytes and were injected for a 2-minute association period followed by a 5-minute dissociation period. Each concentration was run in duplicates. For human SIRPα v1 the incremental concentrations used are 3.13, 6.25, 12.5, 25, 50, 100, […]; For human SIRPα v2 the incremental concentrations used are 0.78, 1.56, 3.13, 6.25, 12.5, or 25 nM. At the end of each analyte injection, the chip was either regenerated with 10 mM glycine-HC1, pH 1.5 (Panels A-D) for multi-cycle kinetics or not regenerated (Panels E-H) for single-cycle kinetics. Data were evaluated using the Biacore T200 Evaluation Software, version 3.2. Data was double referenced then fit with a 1:1 binding model. Panels A and E indicate the binding of anti-hSIRPα×anti-hCLDN18.2 bispecific antibody to hSIRPα v1, panels B and F indicate the binding of anti-hSIRPα #24 IgG antibody to hSIRPα v1, panels C and G indicate the binding of anti-hSIRPα×anti-hCLDN18.2 bispecific antibody to human SIRPα v2, panels D and H indicate the binding of anti-hSIRPα #24 IgG antibody to human SIRPα v2. The x-axis represents the time (seconds), the y-axis represents the RU (Response Units).
(§2) The His6 tagged soluble monomeric extracellular domain (ECD) of hSIRPα v1 and v2 were made by transient transfection in Expi293 cells. Kinetic analysis was performed using surface plasmon resonance (T200, Cytiva) to compare the binding of the anti-hSIRPα×anti-hCLDN18.2 bispecific antibody (SEQ ID NOs:70 and 74) and the parental anti-hSIRPα #24 IgG antibody (SEQ ID NOs:68 and 74) to antigens hSIRPα v1 and hSIRPα v2 (FIG. 15). Either antibody was captured to the CM5 chip surface (Cytiva) by the immobilized goat-anti-human Fc polyclonal antibody, monomeric antigen hSIRPα v1 or v2 was sequentially injected at 6 different concentrations: huSIRPα v1 at 3.13, 6.25, 12.5, 25, 50, 100 nM while hSIPRα v2 at […] with regeneration by 10 mM Glycine-HCl pH1.5 (FIG. 15, panels A-D) for multi-cycle kinetics or without regeneration (FIG. 15, panels E-H) for single-cycle kinetics.

[2] = target: T2, His6 tagged soluble monomeric extracellular domain (ECD) of hSIRPα v2 (human); assay: as above
T2 construct: extracellular domain; Made by transient transfection in Expi293 cells; used as monomeric analyte in Biacore; also called huSIRPαv2; huSIRPα-v2
Protocol: as §1, §2

[3] = target: T3, human Claudin 18 splice variant 2 (hCLDN18.2) (human, UniProt P56856-2 1-261); assay: flow cytometry on Expi293 cells stably expressing hCLDN18.2, APC anti-human IgG detection, gMFI
T3 construct: whole, on cells; Tetra-spanning membrane protein; tested only on cells
T3 sequence (looked up): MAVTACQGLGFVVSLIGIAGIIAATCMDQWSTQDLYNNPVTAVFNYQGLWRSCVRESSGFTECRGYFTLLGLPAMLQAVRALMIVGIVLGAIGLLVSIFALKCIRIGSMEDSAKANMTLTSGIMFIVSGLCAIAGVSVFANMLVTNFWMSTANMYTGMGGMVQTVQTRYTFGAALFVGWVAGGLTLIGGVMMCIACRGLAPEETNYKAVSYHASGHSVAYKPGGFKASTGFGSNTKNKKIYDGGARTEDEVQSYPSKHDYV
Protocol: Cells stably expressing hCLDN18.2 were spun down at 1500 rpm at room temperature for 5 minutes and resuspended in 1×PBS/1% BSA (washing buffer), antibodies at a 1:3 series dilution ranging from 100 nM to 24 pM were added, cells were incubated at RT with shaking for 1 hour. […] Three additional washes were performed to get rid of unbound antibodies, treated samples were run on an LSRII flow cytometer (BD Biosciences) and signal intensity was determined using the geometric MFI of APC using Flow Jo software (BD Biosciences). Curve fitting and EC₅₀ values were obtained using GraphPad Prism 6 software.

[4] = target: T3, human Claudin 18 splice variant 2 …; assay: cell-based or functional assay
[5] = target: human SIRPα on monocyte-derived macrophages (human, UniProt P78324 31-504); assay: cell-based or functional assay
Sequence of human SIRPα on monocyte-derived macrophages (P78324 31-504): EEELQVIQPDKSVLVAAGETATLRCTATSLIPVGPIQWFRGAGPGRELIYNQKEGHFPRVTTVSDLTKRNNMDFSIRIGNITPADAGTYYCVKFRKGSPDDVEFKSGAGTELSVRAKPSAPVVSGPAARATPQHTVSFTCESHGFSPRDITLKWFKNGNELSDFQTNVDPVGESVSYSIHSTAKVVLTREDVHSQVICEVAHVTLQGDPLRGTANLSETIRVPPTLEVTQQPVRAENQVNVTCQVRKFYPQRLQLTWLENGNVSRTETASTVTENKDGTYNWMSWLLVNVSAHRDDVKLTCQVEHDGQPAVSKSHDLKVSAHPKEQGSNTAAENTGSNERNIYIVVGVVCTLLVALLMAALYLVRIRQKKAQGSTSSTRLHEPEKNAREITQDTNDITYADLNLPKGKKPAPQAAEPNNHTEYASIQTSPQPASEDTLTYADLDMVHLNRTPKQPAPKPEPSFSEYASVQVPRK

T1 sequence (P78324 31-373): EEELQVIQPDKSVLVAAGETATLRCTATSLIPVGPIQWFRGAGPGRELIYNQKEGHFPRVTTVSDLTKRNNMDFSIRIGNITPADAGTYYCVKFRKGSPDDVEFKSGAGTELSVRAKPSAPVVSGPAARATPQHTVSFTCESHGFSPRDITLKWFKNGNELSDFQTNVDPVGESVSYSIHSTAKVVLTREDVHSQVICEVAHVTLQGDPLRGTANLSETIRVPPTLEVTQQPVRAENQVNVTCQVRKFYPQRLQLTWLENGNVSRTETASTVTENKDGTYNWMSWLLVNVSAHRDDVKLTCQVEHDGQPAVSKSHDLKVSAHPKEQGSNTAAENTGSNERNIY

Kd [1]: 22.3 nM | koff [1]: 0.0077 s⁻¹ | kon [1]: 346000 M⁻¹ s⁻¹ | Kd [2]: 0.908 nM | koff [2]: 0.00109 s⁻¹ | kon [2]: 1.21e+06 M⁻¹ s⁻¹
B1: parental anti-hSIRPα #24 IgG antibody (antibody, V domains shown)
VH: EVQLVESGGGLVKPGGSLRLSCAASGFTFSSYVMSWVRQTPGKGLEWVATISSGGTYTYYPDSVKGRFTLSRDNAKNSLYLQMNSLRAEDTAVYYCASQLTGSEFDYWGQGTTVTVSS
VL: DIVLTQSPASLAVSLGERATISCRASESVDLYGTSFMHWYQQKPGQPPKLLIYRASNLESGVPDRFSGSGSRTDFTLTINPLQAEDVATYYCHQSSDELPWTFGGGTKVEIKR
notes: Bivalent parental IgG; also called anti-SIRPα mAb; anti-hSIRPα clone #24 IgG (WT)

Kd [1]: 23.2 nM | koff [1]: 0.00732 s⁻¹ | kon [1]: 329000 M⁻¹ s⁻¹ | Kd [2]: 0.88 nM | koff [2]: 0.00104 s⁻¹ | kon [2]: 1.18e+06 M⁻¹ s⁻¹ | EC50 [3]: 16.9 nM
B2: anti-hSIRPα×anti-hCLDN18.2 bispecific antibody (bispecific antibody, human IgG1, kappa)
heavy 1: EVQLVESGGGLVKPGGSLRLSCAASGFTFSSYVMSWVRQTPGKGLEWVATISSGGTYTYYPDSVKGRFTLSRDNAKNSLYLQMNSLRAEDTAVYYCASQLTGSEFDYWGQGTTVTVSSASTKGPSVFPLAPSSKSTSGGTAALGCLVKDYFPEPVTVSWNSGALTSGVHTFPAVLQSSGLYSLSSVVTVPSSSLGTQTYICNVNHKPSNTKVDKKVEPKSCDKTHTCPPCPAPELLGGPSVFLFPPKPKDTLMISRTPEVTCVVVDVSHEDPEVKFNWYVDGVEVHNAKTKPREEQYNSTYRVVSVLTVLHQDWLNGKEYKCKVSNKALPAPIEKTISKAKGQPREPQVYTLPPCREEMTKNQVKLTCLVKGFYPSDIAVEWESNGQPENPYKTTPPVLDKDGSFFLYSKLTVDKSRWQQGNVFSCSVMHEALHNHYTQKSLSLSPGK
light 1: DIVLTQSPASLAVSLGERATISCRASESVDLYGTSFMHWYQQKPGQPPKLLIYRASNLESGVPDRFSGSGSRTDFTLTINPLQAEDVATYYCHQSSDELPWTFGGGTKVEIKRTVAAPSVFIFPPSDEQLKSGTASVVCLLNNFYPREAKVQWKVDNALQSGNSQESVTEQDSKDSTYSLSSTLTLSKADYEKHKVYACEVTHQGLSSPVTKSFNRGEC
heavy 2: QVQLVQSGAEVKKPGSSVKVSCKASGYTLTGYWIEWLRQRPGQGLEWMGEILLGSGSIKYNVKFKDRVTITADESTSTAYMELSSLRSEDTAVYYCARKGLRGNSFDYWGQGTLVTVSSASTKGPSVFPLAPSSKSTSGGTAALGCLVDDYFPEPVTVSWNSGALTSGVHTCPACLQSSGLYSLSSVVTVPSSSLGTQTYICNVNHKPSNTKVDKKVEPKSGDKTHTCPPCPAPELLGGPSVFLFPPKPKDTLMISRTPEVTCVVVDVSHEDPEVKFNWYVDGVEVHNAKTKPREEQYNSTYRVVSVLTVLHQDWLNGKEYKCKVSNKALPAPIEKTISKAKGQPREPQVCTLPPSREEMTKNQVDLTCLVDGFYPSDIAVEWESNGQPENDYGTTPPVLDDDGSFFLYSKLTVDKSRWQQGNVFSCSVMHEALHNHYTQKSLSLSPGK
light 2: DIVMTQSPSSLTVSLGEKATISCKSSQSLLNAGNQKSYLTWYQQKPGQPPKRLIYWASTRESGVPDRFSGSGSGTDFTLTISSLQAEDLAVYYCQNDYYYPFTFGQGTKVEIKRTVAAPSVFIFPPSDEQLKSGTAKVVCLLNNFYPREAKVQWKVDNALQSGNSCECVTEQDSKDSTYSLSSTLTLSKADYEKHKVYACEVTHQGLSSPVTKSFNRGES
notes: Four-chain heterodimeric IgG, one Fab arm for each target; made in ExpiCHO cells and purified on protein A; also called anti-hCLDN18.2×hSIRPα bispecific antibody; anti-hSIRPα×hCLDN18.2
EC50, ADCP killing of PaTu 8988s cells by monocyte-derived macrophages [4]: 0.172 nM | EC50, ADCP killing of PaTu 8988s cells by monocyte-derived macrophages [5]: 0.172 nM

EC50 [3]: 4.52 nM
B3: parental anti-hCLDN18.2 59F9E1 IgG1 antibody (antibody, V domains shown)
VH: QVQLVQSGAEVKKPGSSVKVSCKASGYTLTGYWIEWLRQRPGQGLEWMGEILLGSGSIKYNVKFKDRVTITADESTSTAYMELSSLRSEDTAVYYCARKGLRGNSFDYWGQGTLVTVSS
VL: DIVMTQSPSSLTVSLGEKATISCKSSQSLLNSGNQKSYLTWYQQKPGQPPKRLIYWASTRESGVPDRFSGSGSGTDFTLTISSLQAEDLAVYYCQNDYYYPFTFGQGTKVEIKR
notes: Humanized IgG1 with two Fab arms; also called aCLDN18.2; anti-hCLDN18.2 clone 59F9E1 IgG1 (WT)
